# From the supplement of paper PMC7877785
# ± gives the uncertainty stated by the source.
# Test: self-splicing fitness, log relative to wild type (ln ratio); higher = more splicing; Tetrahymena group I intron in knt gene, E. coli kanamycin selection, DiMSum; sequences stand for … in CUCUCU…GGAGGGAAAAGUUAUCAGGCAUGCACCUGGUAGCUAGUCUUUAAACCAAUAGAUUGCAUCGGUUUAAAAGGCAAGACCGUCAAAUUGCGGGAAAGGGGUCAACAGCCGUUCAGUACCAAGUCUCAGGGGAAACUUUGAGAUGGCCUUGCAAAGGGUAUGGUAAUAAGCUGACGGACAUGGUCCUAACCACGCAGCCAAGUCCUAAGUCAACAGAUCUUCUGUUGAUAUGGAUGCAGUUCACAGACUAAAUGUCGGUCGGGGAAGAUGUAUUCUUCUCAUAAGAUAUAGUCGGACCUCUCCUUAAUGGGAGCUAGCGGAUGAAGUGAUGCAACACUGGAGCCGCUGGGAACUAAUUUGUAUGCGAAAGUAUAUUGAUUAGUUUUGGAGUACUCGUGGUCG
# In short: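 Library with all eight P1ex-region intron nucleotides randomised, intron inside the knt kanamycin-resistance gene on pET-22b(+), in E. coli BL21(DE3). Cells grew overnight at 37°C or 30°C on LB agar with or without 25 μg/mL kanamycin (plus 100 μg/mL carbenicillin, 50 μM IPTG, 0.2% rhamnose), in six replicate transformations. Pooled colonies were amplicon-sequenced on Illumina HiSeq 2500. DiMSum fitness is the error-weighted combination of wild-type-normalised replicate fold changes, kanamycin versus none.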
Sequence,self-splicing fitness (ln) (30 °C),self-splicing fitness (ln) (37 °C)
CGGCAGCAAUAUUACGAGCA,-2.99 ± 0.24,-0.81 ± 0.13
CGGCAGCAAUAUUACGAUAU,-4.27 ± 0.23,-1.51 ± 0.098
CGGCAGCAAUAUUACGCAAG,-1.93 ± 0.13,-1.01 ± 0.16
CGGCAGCAAUAUUACGCAUA,-2.08 ± 0.21,-1.03 ± 0.13
CGGCAGCAAUAUUACGCGGG,-2.12 ± 0.12,-1.42 ± 0.13
CGGCAGCAAUAUUACGCUCU,-2.11 ± 0.14,-0.612 ± 0.16
CGGCAGCAAUAUUACGGCAU,-0.976 ± 0.088,-0.0577 ± 0.1
CGGCAGCAAUAUUACGGGGG,-3 ± 0.13,-1.86 ± 0.16
CGGCAGCAAUAUUACGGGUU,-4.26 ± 0.28,-2.87 ± 0.33
CGGCAGCAAUAUUACGGUAC,-3.61 ± 0.49,-2.9 ± 0.23
CGGCAGCAAUAUUACGUACA,-1.26 ± 0.11,-0.624 ± 0.14
CGGCAGCAAUAUUACGUCCG,-2.03 ± 0.12,-2.92 ± 0.24
CGGCAGCAAUAUUACGUCUA,-0.607 ± 0.071,0.443 ± 0.084
CGGCAGCAAUAUUACGUCUU,-1.09 ± 0.066,0.328 ± 0.086
CGGCAGCAAUAUUACGUGUA,-3.77 ± 0.25,-2.21 ± 0.14
CGGCAGCAAUAUUACGUUCA,-0.358 ± 0.068,0.0795 ± 0.082
CGGCAGCAAUAUUACGUUUA,-2.06 ± 0.12,-1.53 ± 0.13
CGGCAGCAAUAUUACGUUUC,-3.29 ± 0.17,-2.36 ± 0.19
CGGGAGCAAUAUUACGAACU,,-1.25 ± 0.45
CGGGAGCAAUAUUACGAAGG,-1.9 ± 0.39,-1.74 ± 0.41
CGGGAGCAAUAUUACGACUU,-1.58 ± 0.37,-1.83 ± 0.49
CGGGAGCAAUAUUACGAGUG,-3.61 ± 0.24,-1.61 ± 0.2
CGGGAGCAAUAUUACGAUAA,-3.16 ± 0.25,-2.57 ± 0.39
CGGGAGCAAUAUUACGCAGA,-3.67 ± 0.48,-2.01 ± 0.29
CGGGAGCAAUAUUACGCCCA,-2.28 ± 0.25,-1.24 ± 0.28

Sequence,self-splicing fitness (ln) (30 °C),self-splicing fitness (ln) (37 °C)
CGGGAGCAAUAUUACGCGAA,-2.47 ± 0.25,-1.9 ± 0.23
CGGGAGCAAUAUUACGCUCA,-4.3 ± 0.46,-0.0948 ± 0.37
CGGGAGCAAUAUUACGCUUA,-2.19 ± 0.21,-2.87 ± 0.43
CGGGAGCAAUAUUACGGACG,-2 ± 0.14,-2.14 ± 0.23
CGGGAGCAAUAUUACGGCUC,-3 ± 0.3,-2.12 ± 0.42
CGGGAGCAAUAUUACGGUCG,-2.77 ± 0.24,-2.43 ± 0.27
CGGGAGCAAUAUUACGGUCU,-2.67 ± 0.29,-0.781 ± 0.45
CGGGAGCAAUAUUACGGUGU,-3.71 ± 0.24,-2.48 ± 0.25
CGGGAGCAAUAUUACGUCAG,-3.08 ± 0.19,-2.34 ± 0.24
CGGGAGCAAUAUUACGUCCU,-2.54 ± 0.25,
CGGGAGCAAUAUUACGUGGC,-2.62 ± 0.21,-2.43 ± 0.36
CGGUAGCAAUAUUACGAAAC,,-2.72 ± 0.27
CGGUAGCAAUAUUACGAAAG,-0.203 ± 0.16,-0.493 ± 0.16
CGGUAGCAAUAUUACGAGGU,-3.59 ± 0.25,-2.03 ± 0.25
CGGUAGCAAUAUUACGAUAC,-2.53 ± 0.22,
CGGUAGCAAUAUUACGAUCC,-1.23 ± 0.22,-1.56 ± 0.34
CGGUAGCAAUAUUACGCUAC,-2.96 ± 0.47,-2.93 ± 0.43
CGGUAGCAAUAUUACGCUUA,,-1.95 ± 0.2
CGGUAGCAAUAUUACGUACU,-1.36 ± 0.15,-0.578 ± 0.16
CGGUAGCAAUAUUACGUCAA,-1.08 ± 0.29,
CGGUAGCAAUAUUACGUCCC,-0.348 ± 0.48,0.985 ± 0.48
CGGUAGCAAUAUUACGUGGU,-3.17 ± 0.21,-2.3 ± 0.21
CGUAAGCAAUAUUACGAAAA,-3.49 ± 0.31,-1.49 ± 0.16
CGUAAGCAAUAUUACGAUAC,,-2.9 ± 0.47
CGUAAGCAAUAUUACGAUUA,-2.03 ± 0.23,-1.64 ± 0.32
